Experimental data taken from PMC6722932 (Toxins, 2019).

Target: the molecule itself
Experiment: negative-stain electron microscopy; 7 uM lysenin incubated with MLVs of SM/DOPC/cholesterol (1:2:1) for 30 min at 20 °C, with or without 10 mM DTT; fixed with 1% glutaraldehyde, stained with 2% uranyl acetate

B1: lysenin^WT (natural protein)
chain: MSAKAAEGYEQIEVDVVAVWKEGYVYENRGSTSVDQKITITKGMKNVNSETRTVTATHSIGSTISTGDAFEIGSVEVSYSHSHEESQVSMTETEVYESKVIEHTITIPPTSKFTRWQLNADVGGADIEYMYLIDEVTPIGGTQSIPQVITSRAKIIVGRQIILGKTEIRIKHAERKEYMTVVSRKSWPAATLGHSKLFKFVLYEDWGGFRIKTLNTMYSGYEYAYSSDQGGIYFDQGTDNPKQRWAINKSLPLRHGDVVTFMNKYFTRSGLCYDDGPATNVYCLDKREDKWILEVVG
notes: also called recombinant lysenin; wild-type lysenin; source: E. coli BL21(DE3), purified (Ni Sepharose 6 Fast Flow)
binding result: binds
